Consider two molecules from PMC3585228, “Consequences of ChemR23 Heteromerization with the Chemokine Receptors CXCR4 and CCR7” (PLoS ONE, 2013).

For one assay, the target named is T1, CXCR4-hRLuc / CXCR4-EYFP (human, UniProt P61073 1-352).
T1 construct: chemokine receptor CXCR4; cDNA in pcDNA3.1, fusion at its 3' end; Two constructs, each with ONE of the two fusions: CXCR4-hRLuc (donor) and CXCR4-EYFP (acceptor); source: HEK-293T, transfected (calcium phosphate), in living cells; not shown: hRLuc (humanized Renilla luciferase), C-terminal, kept; EYFP, C-terminal, kept
Briefly: FRET or BRET; BRET titration in HEK293T cells: constant amount of the hRLuc donor construct, increasing amounts of the EYFP acceptor construct; signal recorded 5 minutes after coelenterazine H. The following applies: partners not purified. (BRET reads energy transfer from a luciferase to a nearby fluorophore.)

The target in another assay is T2, CCR7-hRLuc / CCR7-EYFP (human, UniProt P32248 25-378).
T2 construct: chemokine receptor CCR7; cDNA in pcDNA3.1, fusion at its 3' end; Two constructs, each with ONE of the two fusions: CCR7-hRLuc (donor) and CCR7-EYFP (acceptor); source: HEK-293T, transfected (calcium phosphate), in living cells; not shown: hRLuc (humanized Renilla luciferase), C-terminal, kept; EYFP, C-terminal, kept
T2 sequence (looked up): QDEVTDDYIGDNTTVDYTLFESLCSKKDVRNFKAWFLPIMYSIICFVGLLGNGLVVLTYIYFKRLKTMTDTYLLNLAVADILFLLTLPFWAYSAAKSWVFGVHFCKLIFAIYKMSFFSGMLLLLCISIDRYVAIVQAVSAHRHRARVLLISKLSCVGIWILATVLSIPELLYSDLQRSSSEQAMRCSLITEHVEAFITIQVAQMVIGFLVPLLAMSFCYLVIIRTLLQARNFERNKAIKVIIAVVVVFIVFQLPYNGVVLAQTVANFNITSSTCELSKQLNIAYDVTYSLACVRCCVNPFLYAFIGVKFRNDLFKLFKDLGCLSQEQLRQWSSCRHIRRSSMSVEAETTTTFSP
The description is as above. As to conditions: partners not purified.

Assay [1] concerns the target T3, CCR7 on CHO-K1 cells (human, UniProt P32248 25-378).
T3 construct: chemokine receptor CCR7; source: CHO-K1, stably expressing, alone or co-expressed with ChemR23 (clone 26); membrane preparations or cells
T3 sequence (looked up): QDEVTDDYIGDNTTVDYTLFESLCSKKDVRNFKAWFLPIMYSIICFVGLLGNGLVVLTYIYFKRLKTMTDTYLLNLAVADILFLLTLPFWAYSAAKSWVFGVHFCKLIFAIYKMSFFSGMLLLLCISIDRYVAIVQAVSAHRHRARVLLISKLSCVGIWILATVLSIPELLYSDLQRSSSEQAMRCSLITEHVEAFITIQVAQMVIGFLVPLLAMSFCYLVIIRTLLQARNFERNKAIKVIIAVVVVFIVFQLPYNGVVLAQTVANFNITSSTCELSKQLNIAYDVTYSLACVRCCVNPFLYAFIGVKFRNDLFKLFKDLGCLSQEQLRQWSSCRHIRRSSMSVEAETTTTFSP
Description: radioligand binding; competition on CHO-K1 cells co-expressing ChemR23 and CCR7; tracer 0.1 nM 125I-CCL19; competitors CCL19 (homologous) or chemerin (heterologous, cross-competition); same buffer, one hour, filtration. The following applies: one partner purified.

Assay [2] addresses T3, CCR7 on CHO-K1 cells. Description: radioligand binding; competition on CHO-K1 cells expressing CCR7 only (methods: membrane preparations); tracer 0.1 nM 125I-CCL19; 50 mM Hepes pH 7.4, 1 mM CaCl2, 5 mM MgCl2, 0.5% BSA; one hour; filtration. The following applies: one partner purified.
The target in assay [3] is T3, CCR7 on CHO-K1 cells. Briefly: cell-based or functional assay.
For assay [4], the target named is T3, CCR7 on CHO-K1 cells. Description: radioligand binding; competition on CHO-K1 cells co-expressing ChemR23 and CCR7; tracer 0.1 nM 125I-[145-157]-chemerin; competitors chemerin (homologous) or CCL19 (heterologous, cross-competition); same buffer, one hour, filtration. As to conditions: one partner purified.

T1 sequence (P61073 whole entry, the tested form may be a part): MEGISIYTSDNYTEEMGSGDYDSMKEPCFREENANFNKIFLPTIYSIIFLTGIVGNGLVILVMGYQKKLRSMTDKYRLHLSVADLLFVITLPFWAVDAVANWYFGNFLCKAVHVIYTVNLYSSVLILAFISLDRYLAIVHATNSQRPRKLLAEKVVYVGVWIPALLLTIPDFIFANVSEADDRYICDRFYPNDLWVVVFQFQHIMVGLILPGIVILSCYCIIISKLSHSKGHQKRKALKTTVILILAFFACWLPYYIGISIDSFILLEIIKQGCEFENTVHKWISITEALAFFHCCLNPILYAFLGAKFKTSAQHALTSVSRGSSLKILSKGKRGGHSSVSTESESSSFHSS

B1: ChemR23-hRLuc / ChemR23-EYFP (receptor, human, UniProt Q99788 1-373, looked up)
chain: MRMEDEDYNTSISYGDEYPDYLDSIVVLEDLSPLEARVTRIFLVVVYSIVCFLGILGNGLVIIIATFKMKKTVNMVWFLNLAVADFLFNVFLPIHITYAAMDYHWVFGTAMCKISNFLLIHNMFTSVFLLTIISSDRCISVLLPVWSQNHRSVRLAYMACMVIWVLAFFLSSPSLVFRDTANLHGKISCFNNFSLSTPGSSSWPTHSQMDPVGYSRHMVVTVTRFLCGFLVPVLIITACYLTIVCKLQRNRLAKTKKPFKIIVTIIITFFLCWCPYHTLNLLELHHTAMPGSVFSLGLPLATALAIANSCMNPILYVFMGQDFKKFKVALFSRLVNALSEDTGHSSYPSHRSFTKMSSMNERTSMNERETGML
notes: ChemR23, the receptor of chemerin; cDNA in pcDNA3.1, fusion at its 3' end; Two constructs, each with ONE of the two fusions: ChemR23-hRLuc (BRET donor) and ChemR23-EYFP (BRET acceptor); source: HEK-293T, transfected (calcium phosphate), in living cells; not shown: hRLuc (humanized Renilla luciferase), C-terminal, kept; EYFP, C-terminal, kept
B1: the “BRET50, fold against the CXCR4 homomer” value with CXCR4-hRLuc / CXCR4-EYFP was 2 fold. For the same molecule, the “BRET50, fold against the CCR7 homomer” value with CCR7-hRLuc / CCR7-EYFP stood at 2 fold.

B2: CCL19 (unlabelled) (ligand, UniProt Q99731 22-98, looked up)
chain: GTNDAEDCCLSVTQKPIPGYIVRNFHYLLIKDGCRVPAVVFTTLRGRQLCAPPDQPWVERIIQRLQRTSAKMKRRSS
notes: chemokine CCL19, the CCR7-specific ligand
Consider B2, for which the values for the IC50 in the assay with CCR7 on CHO-K1 cells [1], with CCR7 on CHO-K1 cells [2] and with CCR7 on CHO-K1 cells [4] were 0.27 nM, 2.42 nM and 6.85 nM, respectively. Besides, in the assay with CCR7 on CHO-K1 cells [3], the “EC50 of calcium mobilization (aequorin assay), CHO-K1 cells expressing CCR7 only” value turned out to be 7.66 nM.

By IC50 is commonly meant the point on the concentration scale where inhibition reaches its midpoint. Low readings indicate greater potency in that assay, high ones weaker potency in that assay.
